The values that follow come from article doi:10.1101/2022.02.10.479912 (bioRxiv, 2022).

In test [1] the target is T1, human Interleukin-18 (mature) (human, UniProt Q14116 37-193).
T1 sequence (looked up): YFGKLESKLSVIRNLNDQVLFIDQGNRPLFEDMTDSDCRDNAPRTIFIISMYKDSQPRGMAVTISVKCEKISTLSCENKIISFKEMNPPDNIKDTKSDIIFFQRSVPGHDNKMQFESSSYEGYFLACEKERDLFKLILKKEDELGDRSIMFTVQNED
As to the kind of experiment: SEC-MALLS.

Test [2] concerns the target T1, human Interleukin-18 (mature). In words: ITC.

B1: human IL-18BP truncated at the N-terminus (residues 63-194), endogenously glycosylated, without Endo H treatment (domain or fragment, UniProt O95998 63-194, looked up)
chain: QCPALEVTWPEVEVPLNGTLSLSCVACSRFPNFSILYWLGNGSFIEHLPGRLWEGSTSRERGSTGTQLCKALVLEQLTPALHSTNFSCVLVDPEQVVQRHVVLAQLWAGLRATLPPTQEALPSSHSSPQQQG
modifications: N-linked Man5GlcNAc2 glycans, not trimmed (no Endo H)
Consider B1, for which the binding result in test [1] is reported as “binds”.

B2: human IL-18BP truncated at the N-terminus (residues 63-194) treated with Endoglycosidase H (domain or fragment, UniProt O95998 63-194, looked up)
chain: QCPALEVTWPEVEVPLNGTLSLSCVACSRFPNFSILYWLGNGSFIEHLPGRLWEGSTSRERGSTGTQLCKALVLEQLTPALHSTNFSCVLVDPEQVVQRHVVLAQLWAGLRATLPPTQEALPSSHSSPQQQG
modifications: N-glycans trimmed by Endo H; N-Acetylglucosamine (GlcNAc) at Asn79, Asn103 and Asn147 in the crystal structure
B2: in test [2], the binding result is reported as “binds”.
